Test results reported in patent publication US8648041 (Novo Nordisk, dated 2014).
Numbered stars: 1 amine (or outer) side, 2 acyl side, 3 side chain; on linkers, the order of the positions; unused ones are H or OH. Square brackets hold non-standard residues; d marks the D form. Side chains are listed from the residue outwards. Ends that are not written are not given here. * marks the point of attachment. 9‑(4-carboxyphenoxy)nonanoyl = O=C(O)c1ccc(OCCCCCCCCC(=O)*)cc1; 8‑(4-carboxyphenoxy)octanoyl = O=C(O)c1ccc(OCCCCCCCC(=O)*)cc1; Malonyl(2,2-Me2,histaminyl) = CC(C)(C(=O)NCCc1cnc[nH]1)C(=O)*; Decanoyl(10-(4-HOOC-PhO)) = O=C(O)c1ccc(OCCCCCCCCCC(=O)*)cc1; γGlu = O=C(O)[C@H](CCC(=O)[*:2])N[*:1]; C14 diacid = O=C(O)CCCCCCCCCCCCC(=O)*; C12 diacid = O=C(O)CCCCCCCCCCC(=O)*; AEEA = NCCOCCOCC(=O)O; Aib = CC(C)(N)C(=O)O

B1: N^ε26-[2-[2-[2-[[2-[2-[2-[[(4S)-4-carboxy-4-[10-(4-carboxyphenoxy)decanoylamino]butanoyl]amino]ethoxy]ethoxy]acetyl]amino]ethoxy]ethoxy]acetyl], … (peptide)
peptide: HAEGTFTSDVSSYLEGQAAK([AEEA-AEEA-γGlu-Decanoyl(10-(4-HOOC-PhO))])EFIAWLVRGRK([AEEA-AEEA-γGlu-Decanoyl(10-(4-HOOC-PhO))])
B2: N^ε26-[2-[2-[2-[[2-[2-[2-[[(4S)-4-carboxy-4-[10-(4-carboxyphenoxy)decanoylamino]butanoyl]amino]ethoxy]ethoxy]acetyl]amino]ethoxy]ethoxy]acetyl], … (peptide)
peptide: HAQGTFTSDVSSYLEGQAAK([AEEA-AEEA-γGlu-Decanoyl(10-(4-HOOC-PhO))])EFIAWLVRGRK([AEEA-AEEA-γGlu-Decanoyl(10-(4-HOOC-PhO))])
B3: N^ε26-[2-[2-[2-[[2-[2-[2-[[(4S)-4-carboxy-4-[10-(4-carboxyphenoxy)decanoylamino]butanoyl]amino]ethoxy]ethoxy]acetyl]amino]ethoxy]ethoxy]acetyl], … (peptide)
peptide: HAEGTFTSDVSSYLEGQAAK([AEEA-AEEA-γGlu-Decanoyl(10-(4-HOOC-PhO))])EFIAHLVQGRK([AEEA-AEEA-γGlu-Decanoyl(10-(4-HOOC-PhO))])
notes: also called Chem. 52
B4: N^ε26-[(4S)-4-carboxy-4-[[2-[2-[2-[[2-[2-[2-[10-(4-carboxyphenoxy)decanoylamino]ethoxy]ethoxy]acetyl]amino]ethoxy]ethoxy]acetyl]amino]butanoyl], … (peptide)
peptide: HAEGTFTSDVSSYLEGQAAK([γGlu-AEEA-AEEA-Decanoyl(10-(4-HOOC-PhO))])EFIAHLVQGRK([γGlu-AEEA-AEEA-Decanoyl(10-(4-HOOC-PhO))])
notes: also called Chem. 55
B5: N^ε26-[2-[2-[2-[[2-[2-[2-[[(4S)-4-carboxy-4-[8-(4-carboxyphenoxy)octanoylamino]butanoyl]amino]ethoxy]ethoxy]acetyl]amino]ethoxy]ethoxy]acetyl], … (peptide)
peptide: HAEGTFTSDVSSYLEGQAAK([AEEA-AEEA-γGlu-8‑(4-carboxyphenoxy)octanoyl])EFIAWLVRGGK([AEEA-AEEA-γGlu-8‑(4-carboxyphenoxy)octanoyl])
B6: N^ε26-[2-[2-[2-[[2-[2-[2-[[(4S)-4-carboxy-4-[10-(4-carboxyphenoxy)decanoylamino]butanoyl]amino]ethoxy]ethoxy]acetyl]amino]ethoxy]ethoxy]acetyl], … (peptide)
peptide: HAEGTFTSDVSSYLEGQAAK([AEEA-AEEA-γGlu-Decanoyl(10-(4-HOOC-PhO))])EFIEWLVRGRK([AEEA-AEEA-γGlu-Decanoyl(10-(4-HOOC-PhO))])
B7: N^ε26-[2-[2-[2-[[2-[2-[2-[[(4S)-4-carboxy-4-(11-carboxyundecanoylamino)butanoyl]amino]ethoxy]ethoxy]acetyl]amino]ethoxy]ethoxy]acetyl], … (peptide)
peptide: HAEGTFTSDVSSYLEGQAAK([AEEA-AEEA-γGlu-C12 diacid])EFIAHLVQGRK([AEEA-AEEA-γGlu-C12 diacid])
notes: also called Chem. 54
B8: N^ε26-[2-[2-[2-[[2-[2-[2-[[(4S)-4-carboxy-4-[10-(4-carboxyphenoxy)decanoylamino]butanoyl]amino]ethoxy]ethoxy]acetyl]amino]ethoxy]ethoxy]acetyl], … (peptide)
peptide: HAEGTFTSDVSSYLEGQAAK([AEEA-AEEA-γGlu-Decanoyl(10-(4-HOOC-PhO))])EFIAWLVRGGK([AEEA-AEEA-γGlu-Decanoyl(10-(4-HOOC-PhO))])
B9: N^ε26-[2-[2-[2-[[2-[2-[2-[[(4S)-4-carboxy-4-(13-carboxytridecanoylamino)butanoyl]amino]ethoxy]ethoxy]acetyl]amino]ethoxy]ethoxy]acetyl], … (peptide)
peptide: HAEGTFTSDVSSYLEGQAAK([AEEA-AEEA-γGlu-C14 diacid])EFIAHLVQGRK([AEEA-AEEA-γGlu-C14 diacid])
notes: also called Chem. 53
B10: N^ε26-[(4S)-4-carboxy-4-[[2-[2-[2-[[2-[2-[2-(13-carboxytridecanoylamino)ethoxy]ethoxy]acetyl]amino]ethoxy]ethoxy]acetyl]amino]butanoyl], … (peptide)
peptide: HAEGTFTSDVSSYLEGQAAK([γGlu-AEEA-AEEA-C14 diacid])EFIAWLVRGRK([γGlu-AEEA-AEEA-C14 diacid])
B11: N^ε26-[2-[2-[2-[[2-[2-[2-[[(4S)-4-carboxy-4-(13-carboxytridecanoylamino)butanoyl]amino]ethoxy]ethoxy]acetyl]amino]ethoxy]ethoxy]acetyl], … (peptide)
peptide: HAEGTFTSDVSSYLEGQAAK([AEEA-AEEA-γGlu-C14 diacid])EFIAWLVRGRK([AEEA-AEEA-γGlu-C14 diacid])
B12: N^9-{2-[2-(1H-Imidazol-4-yl)-ethylcarbamoyl]-2-methylpropionyl}-N^ε26-{2-[2-(2-{2-[2-(2-{(S)-4-[4-(4-tert-Butylphenyl)butyrylamino]-4-carboxybutyrylamino}ethoxy … (peptide)
peptide: {Malonyl(2,2-Me2,histaminyl)}-EGTFTSDVSSYLEGQAAKEFIAWLVRGRK
modifications: not fully specified (residues 18, 29); printed as N^9-{2-[2-(1H-Imidazol-4-yl)-ethylcarbamoyl]-2-methylpropionyl}-N^ε26-{2-[2-(2-{2-[2-(2-{(S)-4-[4-(4-tert-Butylphenyl)butyrylamino]-4-carboxybutyrylamino}ethoxy)ethoxy]acetylamino}ethoxy)ethoxy]acetyl}, N^ε37-{2-[2-(2-{2-[2-(2-{(S)-4-[4-(4-tert-Butylphenyl)butyrylamino]-4-carboxybutyrylamino}ethoxy)ethoxy]acetylamino}ethoxy)ethoxy]acetyl}[Arg^34, Lys^37]GLP-1(9-37)-peptide
notes: also called Chem. 46
B13: N^9-{2-[2-(1H-Imidazol-4-yl)ethylcarbamoyl]-2-methylpropionyl}, … (peptide)
peptide: {Malonyl(2,2-Me2,histaminyl)}-EGTFTSDVSSYLEGQAAK([AEEA-AEEA-γGlu-Decanoyl(10-(4-HOOC-PhO))])EFIAWLVRGRK([AEEA-AEEA-γGlu-Decanoyl(10-(4-HOOC-PhO))])E
notes: also called Chem. 41
B14: N^ε26-[2-[2-[2-[[2-[2-[2-[[(4S)-4-carboxy-4-[9-(4-carboxyphenoxy)nonanoylamino]butanoyl]amino]ethoxy]ethoxy]acetyl]amino]ethoxy]ethoxy]acetyl], … (peptide)
peptide: HAEGTFTSDVSSYLEGQAAK([AEEA-AEEA-γGlu-9‑(4-carboxyphenoxy)nonanoyl])EFIAWLVRGRK([AEEA-AEEA-γGlu-9‑(4-carboxyphenoxy)nonanoyl])
B15: N^ε26-[2-(2-[2-(2-[2-(2-[4-(10-(4-Carboxyphenoxy)decanoylamino)-4(S)-carboxybutyrylamino]ethoxy)ethoxy]acetylamino)ethoxy]ethoxy)acetyl]-N^ε37-[2-(2-[2-(2-[2-(2 … (peptide)
peptide: HXEGTFTSDVSSYLEGQAAKEFIAHLVQGRK
modifications: Aib at 8; Lys26 and Lys37 each acylated at the epsilon-amino group with 10-(4-carboxyphenoxy)decanoyl-gammaGlu-OEG-OEG (GLP-1(7-37) numbering, His = 7)
notes: also called Chem. 36
B16: N^ε26-[2-[2-[2-[[2-[2-[2-[[(4S)-4-carboxy-4-[10-(4-carboxyphenoxy)decanoylamino]butanoyl]amino]ethoxy]ethoxy]acetyl]amino]ethoxy]ethoxy]acetyl], … (peptide)
peptide: H[Aib]EGTFTSDVSSYLEGRAAK([AEEA-AEEA-γGlu-Decanoyl(10-(4-HOOC-PhO))])EFIAWLVRGRK([AEEA-AEEA-γGlu-Decanoyl(10-(4-HOOC-PhO))])
B17: N^ε26-[2-(2-{2-[2-(2-{2-[(S)-4-Carboxy-4-(11-carboxyundecanoylamino)butyrylamino]ethoxy}ethoxy)acetylamino]ethoxy}ethoxy)acetyl], … (peptide)
peptide: B15 peptide
modifications: Aib at 8; Lys26 and Lys37 each acylated at the epsilon-amino group with 11-carboxyundecanoyl-gammaGlu-OEG-OEG (GLP-1(7-37) numbering, His = 7)
notes: also called Chem. 40
B18: N^ε26-[2-[2-[2-[[2-[2-[2-[[(4S)-4-carboxy-4-[10-(4-carboxyphenoxy)decanoylamino]butanoyl]amino]ethoxy]ethoxy]acetyl]amino]ethoxy]ethoxy]acetyl], … (peptide)
peptide: H[Aib]GGTFTSDVSSYLEGQAAK([AEEA-AEEA-γGlu-Decanoyl(10-(4-HOOC-PhO))])EFIAWLVRGRK([AEEA-AEEA-γGlu-Decanoyl(10-(4-HOOC-PhO))])
B19: N^9-{2-[2-(1H-Imidazol-4-yl)ethylcarbamoyl]-2-methylpropionyl}-N^ε26-{2-[2-(2-{2-[2-(2-{(S)-4-Carboxy-4-[10-(4-carboxyphenoxy)decanoylamino]butyrylamino}ethoxy) … (peptide)
peptide: {Malonyl(2,2-Me2,histaminyl)}-EGTFTSDVSSYLEGQAAK([AEEA-AEEA-γGlu-Decanoyl(10-(4-HOOC-PhO))])EFIAWLVRGRK([AEEA-AEEA-γGlu-Decanoyl(10-(4-HOOC-PhO))])
notes: also called Chem. 42
B20: N^ε26-[2-[2-[2-[[2-[2-[2-[[(4S)-4-carboxy-4-[8-(4-carboxyphenoxy)octanoylamino]butanoyl]amino]ethoxy]ethoxy]acetyl]amino]ethoxy]ethoxy]acetyl], … (peptide)
peptide: HAEGTFTSDVSSYLEGQAAK([AEEA-AEEA-γGlu-8‑(4-carboxyphenoxy)octanoyl])EFIAWLVRGRK([AEEA-AEEA-γGlu-8‑(4-carboxyphenoxy)octanoyl])
B21: N^ε26-[2-[2-[2-[[2-[2-[2-[[(4S)-4-carboxy-4-[10-(4-carboxyphenoxy)decanoylamino]butanoyl]amino]ethoxy]ethoxy]acetyl]amino]ethoxy]ethoxy]acetyl], … (peptide)
peptide: HAEGTFTSDVSSYLEGQAAK([AEEA-AEEA-γGlu-Decanoyl(10-(4-HOOC-PhO))])EFIAWLVRGRK([AEEA-AEEA-γGlu-Decanoyl(10-(4-HOOC-PhO))])G
notes: the added Gly38 is therefore written as a second piece
B22: N^ε26-[2-[2-[2-[[2-[2-[2-[[(4S)-4-carboxy-4-[10-(4-carboxyphenoxy)decanoylamino]butanoyl]amino]ethoxy]ethoxy]acetyl]amino]ethoxy]ethoxy]acetyl], … (peptide)
peptide: HAEGTFTSDVSSYLEGQAAK([AEEA-AEEA-γGlu-Decanoyl(10-(4-HOOC-PhO))])EFIAWLVRGRK([AEEA-AEEA-γGlu-Decanoyl(10-(4-HOOC-PhO))])E
notes: also called Chem. 65
B23: N^ε26-[2-[2-[2-[[2-[2-[2-[[(4S)-4-carboxy-4-[10-(4-carboxyphenoxy) decanoylamino]butanoyl]amino]ethoxy]ethoxy]acetyl]amino]ethoxy]ethoxy]acetyl], … (peptide)
peptide: XAEGTFTSDVSSYLEGQAAKEFIAWLVRGRK
modifications: Imp (imidazopropionic acid, des-amino histidine) at 7; Lys26 and Lys37 each acylated at the epsilon-amino group with 10-(4-carboxyphenoxy)decanoyl-gammaGlu-OEG-OEG (GLP-1(7-37) numbering)
B24: N{9}-[2,2-dimethyl-3-oxo-3-(pyridin-2-ylmethylamino)propanoyl], … (peptide)
peptide: {2,2‑dimethyl‑3‑oxo‑3‑(pyridin-2-ylmethylamino)propanoyl}-EGTFTSDVSSYLEGQAAK([AEEA-AEEA-γGlu-Decanoyl(10-(4-HOOC-PhO))])EFIAWLVRGRK([AEEA-AEEA-γGlu-Decanoyl(10-(4-HOOC-PhO))])
notes: also called Chem. 60

Experiments:
human GLP-1 receptor [1] = molecular target: T1, human GLP-1 receptor (human, UniProt P43220 24-463); test: SPA, displacement of 125I-GLP-1(7-36)NH2 from membranes with human GLP-1 receptor, 2.0% HSA
T1 construct: whole, on cells; Used as membrane preparations of the transfected hamster (BHK) cell line, not as whole cells; also called hGLP-1/BHK 467-12A membranes
Source text: (§1) A shift in the binding affinity, $IC50$, is an indication that the peptide in question binds to albumin, and thereby a prediction of a potential protracted pharmacokinetic profile of the peptide in question in animal models. Conditions Species (in vitro): Hamster Biological End Point: Receptor Binding Assay Method: SPA Receptor: GLP-1 receptor Cell Line: BHK tk-ts13 Cell Culture and Membrane Purification A stable transfected cell line and a high expressing clone were selected for screening. The cells were grown at 5% CO_2 in DMEM, 10% FCS, 1% Pen/Strep (Penicillin/Streptomycin) and 1.0 mg/ml of the selection marker G418.
(§2) 25 ul (micro liter) of test compounds were added to Optiplate. HSA ("high albumin" experiment containing 2% HSA), or buffer ("low albumin" experiment containing 0.005% HSA), was added (50 ul). 5-10 ug protein/sample was added (50 ul) corresponding to 0.1-0.2 mg protein/ml (to be preferably optimised for each membrane preparation). SPA-particles (Wheatgerm agglutinin SPA beads, Perkin Elmer, #RPNQ0001) were added in an amount of 0.5 mg/well (50 ul). […] The plates were sealed with PlateSealer and incubated for 120 minutes at 30° C. while shaking. The plates were centrifuged (1500 rpm, 10 min) and counted in Topcounter. Assay Buffer: 50 mM HEPES 5 mM EGTA 5 mM MgCl2 0.005% Tween™ 20 pH 7.4 HSA was SIGMA A1653.

human GLP-1 receptor [2] = molecular target: T1, human GLP-1 receptor; test: SPA, displacement of 125I-GLP-1(7-36)NH2 from membranes with human GLP-1 receptor, 0.005% HSA
Source text: as §1, §2

IC50 (human GLP-1 receptor [1]) [nM] | IC50 (human GLP-1 receptor [2]) [nM] | Binder
≤ 1000 | < 600 | B1
≤ 1000 | < 600 | B2
≤ 1000 | < 600 | B3
≤ 1000 | < 600 | B4
≤ 1000 | < 600 | B5
≤ 1000 | < 600 | B6
≤ 1000 | < 600 | B7
≤ 1000 | < 600 | B8
≤ 1000 | < 600 | B9
≤ 1000 | < 600 | B10
≤ 1000 | < 600 | B11
≤ 1000 | < 600 | B12
≤ 1000 | < 600 | B13
≤ 1000 | < 600 | B14
≤ 1000 | < 600 | B15
≤ 1000 | < 600 | B16
≤ 1000 | < 600 | B17
≤ 1000 | < 600 | B18
≤ 1000 | < 600 | B19
≤ 1000 | < 600 | B20
≤ 1000 | < 600 | B21
≤ 1000 | < 600 | B22
≤ 1000 | < 600 | B23
≤ 1000 | < 600 | B24
